Laboratory results taken from paper PMC3973953.

Substrate: O=[N+]([O-])c1ccc(O[C@@H]2O[C@H](CO)[C@H](O)[C@H](O)[C@H]2O)cc1
Assay: purified protein
Settings: McIlvaine buffer at optimal pH, 37 °C

Protein | Km [µM] | kcat [s⁻¹] | kcat/Km [M⁻¹ s⁻¹]
A. nidulans rlacA (Aspergillus nidulans FGSC A4) (protein) VALTHKLNGFTITEHPDAEKRELLQKYVTWDDKSLFINGERIMIFGAEIHPWRLPVPSLWRDILQKVKALGFNCVSFYVDWALLEGKPGEYRAEGSFAWEPFFDAASDLGIYLIARPGPYINAEASGGGFPGWLQRLNGTIRSSDQSYLDATENYVSHIGGLIAKYQITNGGPVILYQPDNEYSGGCCGQEFPNPDYFQYVIDQARRAGIVVPTISNDAWPGGHNAPGTGKGEVDIYGHDNYPLGFDCANPDVWPEGNLPTDYRDLHLEISPSTPYALVEYQVGAFDPWGGPGFEQCAALTGYEFERVFHKNTFSFGVGILSLYMTFGGTNWGNLGHPGGYTSYDYGSPIKETREITREKYSELKLLGNFIKSSPGYLLATPGKLTNTTYTNTADLTVTPLLGNGTGSFFVLRHSDYSSQASTPYKLRLPTSAGQLTIPQLGGSLVLNGRDSKVHLVDYDVAGTKILYSTAEVFTWKKFHDGKVLVLYGGPGEHHELAVSSKAKVKVVEGLGSGISSKQIRGAVVVAWDVEPARRIVQIGDLKIFLLDRNSAYNYWVPQLGTETSIPYATEKAVAASVIVKAGYLVRTAYVKGRDLHLTADFNATTPVEVIGAPKTAENLFINGKKAHHTVDKNGIWSTEVGYSPPKIVLPVLEDLKWKSIDTLPEIQPSYDDSPWPDANLPTKNTIYPLRTPTSLYASDYGFHTGYLLFRGHFTANGRESNFSIQTQGGQAFGSSVWLSGTYLGSWTGDNDYQDYNATYTLPSLKAGKEYVFTVVVDNMGLNENWIVGQDEMKKPRGILNYELSGHEASDITWKLTGNFGGEDYVDKVRGPLNEGGLYAERHGYHQPYPPTKSKDWKSSTPLTGLSKPGISFYTASFDLDIKSGWDVPIYFEFGNSTTPAPAYRVQLYVNGWQYGKYVNNIGPQTRFPVPEGILNYKGTNWVAVTLWALEGSGAKLDSFKLVHGIPVRTALDVEGVELPRYQSRKGVY | 1850 ± 210 | 63.4 ± 0.9 | 34100 ± 1500
A. oryzae β-galactosidase (Aspergillus oryzae RIB40) (protein) ASIKHRLNGFTILEHPDPAKRDLLQDIVTWDDKSLFINGERIMLFSGEVHPFRLPVPSLWLDIFHKIRALGFNCVSFYIDWALLEGKPGDYRAEGIFALEPFFDAAKEAGIYLIARPGSYINAEVSGGGFPGWLQRVNGTLRSSDEPFLKATDNYIANAAAAVAKAQITNGGPVILYQPENEYSGGCCGVKYPDADYMQYVMDQARKADIVVPFISNDASPSGHNAPGSGTGAVDIYGHDSYPLGFDCANPSVWPEGKLPDNFRTLHLEQSPSTPYSLLEFQAGAFDPWGGPGFEKCYALVNHEFSRVFYRNDLSFGVSTFNLYMTFGGTNWGNLGHPGGYTSYDYGSPITETRNVTREKYSDIKLLANFVKASPSYLTATPRNLTTGVYTDTSDLAVTPLIGDSPGSFFVVRHTDYSSQESTSYKLKLPTSAGNLTIPQLEGTLSLNGRDSKIHVVDYNVSGTNIIYSTAEVFTWKKFDGNKVLVLYGGPKEHHELAIASKSNVTIIEGSDSGIVSTRKGSSVIIGWDVSSTRRIVQVGDLRVFLLDRNSAYNYWVPELPTEGTSPGFSTSKTTASSIIVKAGYLLRGAHLDGADLHLTADFNATTPIEVIGAPTGAKNLFVNGEKASHTVDKNGIWSSEVKYAAPEIKLPGLKDLDWKYLDTLPEIKSSYDDSAWVSADLPKTKNTHRPLDTPTSLYSSDYGFHTGYLIYRGHFVANGKESEFFIRTQGGSAFGSSVWLNETYLGSWTGADYAMDGNSTYKLSQLESGKNYVITVVIDNLGLDENWTVGEETMKNPRGILSYKLSGQDASAITWKLTGNLGGEDYQDKVRGPLNEGGLYAERQGFHQPQPPSESWESGSPLEGLSKPGIGFYTAQFDLDLPKGWDVPLYFNFGNNTQAARAQLYVNGYQYGKFTGNVGPQTSFPVPEGILNYRGTNYVALSLWALESDGAKLGSFELSYTTPVLTGYGNVESPEQPKYEQRKGAY | 3020 ± 610 | 46.4 ± 1.2 | 14600 ± 600
